T1: SUDV GP on pseudotyped lentiviral vector (Sudan virus (SUDV), UniProt Q7T9D9 33-676)
T1 sequence: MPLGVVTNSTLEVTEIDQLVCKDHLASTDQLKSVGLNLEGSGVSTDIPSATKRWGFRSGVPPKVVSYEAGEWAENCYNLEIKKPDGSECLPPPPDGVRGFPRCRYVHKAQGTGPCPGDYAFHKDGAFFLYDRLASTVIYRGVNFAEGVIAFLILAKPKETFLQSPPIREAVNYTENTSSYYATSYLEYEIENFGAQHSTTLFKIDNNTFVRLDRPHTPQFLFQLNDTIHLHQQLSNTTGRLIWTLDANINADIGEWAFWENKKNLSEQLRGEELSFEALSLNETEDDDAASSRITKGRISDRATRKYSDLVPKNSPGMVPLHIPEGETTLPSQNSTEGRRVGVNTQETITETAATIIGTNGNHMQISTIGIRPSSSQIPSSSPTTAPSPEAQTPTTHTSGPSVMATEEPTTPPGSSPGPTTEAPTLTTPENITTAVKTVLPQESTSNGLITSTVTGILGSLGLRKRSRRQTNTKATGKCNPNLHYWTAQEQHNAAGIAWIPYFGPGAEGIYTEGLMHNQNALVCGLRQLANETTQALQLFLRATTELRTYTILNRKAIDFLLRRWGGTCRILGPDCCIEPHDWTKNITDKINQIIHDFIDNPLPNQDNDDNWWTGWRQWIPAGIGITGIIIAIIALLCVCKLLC

T2: full-length Sudan GP (GPFL) (Sudan virus (SUDV), UniProt Q7T9D9 33-650)
T2 construct: also called Sudan GPFL; GP(S)FL
T2 sequence: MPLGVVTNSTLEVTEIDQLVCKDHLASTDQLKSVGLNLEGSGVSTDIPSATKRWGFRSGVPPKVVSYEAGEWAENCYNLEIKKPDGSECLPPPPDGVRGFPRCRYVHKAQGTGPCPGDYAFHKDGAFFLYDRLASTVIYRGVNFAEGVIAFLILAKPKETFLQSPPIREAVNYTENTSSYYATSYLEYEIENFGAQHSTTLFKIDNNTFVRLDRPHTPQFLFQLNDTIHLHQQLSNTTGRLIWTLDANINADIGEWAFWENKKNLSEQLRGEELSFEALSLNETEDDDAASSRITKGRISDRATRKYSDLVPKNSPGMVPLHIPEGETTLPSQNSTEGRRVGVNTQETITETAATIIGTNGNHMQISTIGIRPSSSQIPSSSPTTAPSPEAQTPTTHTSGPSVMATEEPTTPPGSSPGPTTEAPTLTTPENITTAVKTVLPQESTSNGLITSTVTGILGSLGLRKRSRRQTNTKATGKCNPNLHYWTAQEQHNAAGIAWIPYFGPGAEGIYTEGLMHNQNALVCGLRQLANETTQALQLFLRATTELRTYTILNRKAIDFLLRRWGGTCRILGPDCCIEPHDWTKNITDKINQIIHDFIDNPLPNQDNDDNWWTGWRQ

B1: antibody 541S (antibody, V domains shown)
VH: QVQLVQSGAEVKKPGASVKVSCKASGYTFTNYAITWVRQAPGQGLEWMGWISAFNGQINYAQKFQGRVAMTTDTSTSTAYMELRSLRSDDTAVYYCARAPPMWFSGAKFDYWGQGTLVTVSS
VL: QSVLTQPPSVSGTPGQRVTISCSGSSSNIGSNTVNWYQQLPGTAPKLLIYSNDQRPSGVPDRFSGSKSGTSASLAISGLRSEDEADYYCAAWDETLRRVFGGGTRLTVL
B2: antibody 241S (antibody, V domains shown)
VH: QVQLVQSGSELKKPGASVKVSCKASGYTFTSYTVNWVRQAPGQGLEWMGWINTNTGNPTYAQGFTGRFVFSSDTSVSTAYLQISDLKAEDTAMYYCARHVAYDLWSGHTVTFDHWGQGTLVTVSS
VL: QSALTQPPSASGSPGQSVTISCTGTSSDVGAYNYVSWYQQHPGKAPKLIIYEVTKRPSGVPDRFSGSKSGNTASLTVSGLQAEDEADYYCSSKAGGKTYVFGTGTKVTVL
B3: antibody 354S (antibody, V domains shown)
VH: QVQLVQSGAEVKKPGASVKVSCKASGYSFASYYIHWVRQAPGQGLEWMGIINPSGGTTSYAQKFQGRVTMTRDTSTSTVYMELSSLGSEDTAVYYCARIVDRVTIYLNGVDNYWGQGTLVTVSS
VL: EIVMTQSPATLSVSPGERVTLSCRASQSVSSNLAWFQQTPGQAPRLLIYGASTRASGVPARFSGSGSGTEFTLTISSLQSEDFAVYYCLQYNNWPPGWKYGFGQGTKLEIK
B4: antibody 573S (antibody, V domains shown)
VH: EVQLVESGGGLVKPGGSLRLSCAASGFTFSSYTMNWVRQAPGKGLEWVSCIRSSSSDKYYADSVKGRFTISRDNTKNSLYLQMNSLRADDTAVYYCARDLGGANNRYYFDYGMDVWGQGTTVTVSS
VL: EIVMTQSPATLSVSPGGRATLSCRASQSVYTNLAWYQQKPGQAPRLLIYDASTRATGIPARFSGSGSGTEFTLTISSLQCEDFAVYYCQHYNNWPLYTFGQGTKLEIK
B5: antibody 294S (antibody, V domains shown)
VH: QVQLQESGPGLVKPSQTLSLTCTVSGGSISSGGYHWSWIRQHPGKGLEWIGNIYYNGRTYYNPSLKSRVTISVDTSENEFSLKLSSVTAADTAVYYCARDRRRPRIGHDYGMDVWGQGTKVIVSS
VL: DIQMTQSPSSLSASVGDRVTISCRASQSISNFLNWYQQKPGQAPKLLIYTASNLQSGVPSRFSGSGSGTDFTLTISSLQPEDFATYYCQQIYNTGMYSFGQGTKLEIKR
B6: antibody 285S (antibody, V domains shown)
VH: QVQLVQSGAEVKKPGSSVKVSCKASGGTFSTYAITWVRQAPGQGLEWMGRIIPILRVANYAQKFQGRVTITADSSTSTAYMELSSLRSEDTAVYYCANLLAYCGGDCRSDYWGQGTLVTVSS
VL: EIVLTQSPGTLSLSPGERATLSCRASQSVKNSYLAWYHQKPGQAPRLLIYGASSRATGIPDRFSGSGSGTDFTLTISRLEPEDFAVYYCQQYGSSLWTFGQGTKVDVK
B7: antibody 382S (antibody, V domains shown)
VH: QVQLVQSGAEVKKPGSSVKVSCKASGGTFSNYGISWVRQAPGQGLEWMGRNIPIIGIANYAQKFQDRVTITADKSTSTVFMELRSLRYEDTAVYYCARDPLAARRGNWFDPWGQGTLVTVSS
VL: DIQMTQSPSTLSASVGDRVTITCRASQSVSSWLAWYQQKPGKAPKLLIYDASTLQSGVPSRFSGSGSGTEFTLTISSLQPDDFATYYCQQYNSYSYTFGQGTKLEIK
B8: antibody 335S (antibody, V domains shown)
VH: EVQLVESGGGVVQPGRSLRLSCAASGFSFSNYAMHWVRQAPGKGLEWVAVTWYDGSSKYHADSVKGRFTISRDNSKNTLYLQMNSLRAEDTAVYYCARWGMGIVASPGNVLNYYYFMDVWGQGTTVIVSS
VL: SYELTQPPSVSVSPGQTARITCSGNPLPKKHTYWYQQKPGQAPVLMIYKDSERPSRIPERFSGSSSGTTVTLTISGVQAEDEADYYCQSADSTGIVVFGGGTKLTVL
B9: antibody 338S (antibody, V domains shown)
VH: EVQLVESGGGVVQPGRSLRLSCAASGFTFSQYGMHWVRQAPGKGLECVAVIWFDGSKKYYGDSVKGRFTISRDNSKNTLYLQMNSLRAEDTAVYFCARESLYYYDSGGHYYERGRIDYWGQGTLVTVSS
VL: DIQMTQSPSSLSASVGDRVTITCRASQDISNFLAWFQQKPGKAPKSLIYAASSLLSGVPSKFSGSGSGTDFTLTISSLQPEDFATYYCQQYNSYPPTFGQGTKLEIK
B10: antibody 578S (antibody, V domains shown)
VH: EVQLVESGGGVVQPGRSLRLSCAASGFTFSSYELHWVRQAPGKGLEWVAVISYDGSSKYYADSLKGRFTISRDNSKNTLSLQMNSLRAEDTAMYYCVRQSEAYCSDGRCDWRRALDIWGQGTMVTVSP
VL: DIQMTQSPSSLSASVGDRVTITCQASQDIKNYLNWYQQKPGKAPKLLIYDVSKLETGVPSRFSGSGSGTDFSFTISSLQPEDIATYYCQQYDNLPSYTFGQGTKLEIK
B11: antibody 405S (antibody, V domains shown)
VH: EVQLVESGGGLIQPGGSLRLSCAASGFTVSSHYMSWVRQAPGKGLEWVSGIYSGGRTHYADSVKGRFTISRDNSKNTLYLQMNSLRADDTAVYSCARGTLLYLYGMDVWGQGTTVTVSS
VL: QSVLTQPPSVSAAPGQRVTISCTGSSSNIGAGYNVHWYQQLPGAAPKLLIYGNTNRPSGVPDRFSGSKSGTSASLAITGLQAEDEADYYCQSFDSSLSGVFGTGTKVTVL
B12: antibody 102S (antibody, V domains shown)
VH: EVQLVESGGGLVQPGGSLRLSCSASGFTFHSYDMNWARQAPGKGLEWVSEISSSGQSKNYADSVRGRFTISRDNAKNSLYLQINSLRSEDTAVYYCARVGFVAKFGSDFSITHGTYYLDYWGQGTLVTVSS
VL: QLVLTQSPATLSLSPGERATLSCRASQSVSNYLAWYQQKPGQAPRLLIYDASNRAPGVPARFSGSGSGTDFSLTISSLEPEDFAVYYCLQRSNWPPWTFGQGTKVEIK
B13: antibody 365S (antibody, V domains shown)
VH: EVQLVESGGGLVQPGGSLRLSCAASGLTFSAYEMNWVRQAPGKGLEWVSHITTSGSAIYYADSVKGRFTISRDNAKNSLHLQMNRLRADDTAVYFCARDSTIVQCSGTSCHVSTYSYMDVWGKGTTVTVSS
VL: EIVLTQSPATLSLSPGERATLSCRASQSVTTYLAWYQHKPGQAPRLLIYDASKRATGIPARFSGSGSGTDFTLTISSLEPEDFAVYHCQQRSSWPPITFGQGTRLEIK

For orientation: EC50 means the midpoint of the concentration-response curve.

The target in the first experiment is T1, SUDV GP on pseudotyped lentiviral vector. In words: cell-based or functional assay.
With B1, the “IC50, microneutralization of GP-pseudotyped lentiviral vector on HEK293 cells” value (from here on “IC50, microneutralization”) is 0.478 µg/mL.
Same read-out and setting: the figure for B2 is 0.0275 µg/mL.
The same measure, in the same setting: the figure for B3 is 0.03 µg/mL.
The same measure, in the same setting: for B4 the value was 0.188 µg/mL.
On to B5, for which the “IC50, microneutralization” value was found to be 0.0192 µg/mL.

For another experiment, the target named is T2, full-length Sudan GP (GPFL). In words: ELISA on coated GP.
In the case of B6, a half-maximal effect (EC50) was put at 0.02 µg/mL.
Same read-out and setting: the figure for B7 is 0.35 µg/mL; for B8 it is 0.02 µg/mL.
Still for that read-out and setting: for B9 the value was 0.03 µg/mL; for B10, 0.18 µg/mL; for B11, 0.06 µg/mL.
On the same count and under the same terms, for B12 the value was 0.09 µg/mL; for B13, 0.11 µg/mL.

Another experiment has the same target. As to the kind of experiment: ELISA on coated GP. This is another data set of the same source. On the technique in general: ELISA stands for enzyme-linked immunosorbent assay.
With B1, a half-maximal effect (EC50) was put at 0.368 µg/mL.
Still for that read-out and setting: the figure for B2 is 0.232 µg/mL.
On the same count and under the same terms, the figure for B3 is 0.0613 µg/mL; for B4 it is 0.221 µg/mL.
B5 displayed an EC50 of 0.0258 µg/mL.

The target of another experiment is T1, SUDV GP on pseudotyped lentiviral vector. In words: cell-based or functional assay. This is another data set of the same source.
As for B6, the “IC50, microneutralization” value stood at 0.64 µg/mL.
Still for that read-out and setting: the figure for B7 is 0.71 µg/mL; for B8 it is 0.63 µg/mL.
For B9, the “IC50, microneutralization” value stood at 0.6 µg/mL.
With B10, the “IC50, microneutralization” value is 1.09 µg/mL.
For B11, the “IC50, microneutralization” value came to 0.79 µg/mL.
Same read-out and setting: the figure for B12 is 0.88 µg/mL; for B13 it is 0.79 µg/mL.

The record behind these values is patent publication US20260209316A1 (US Dept. of Health and Human Services, published 2026).
